According to the RNAGym collection of RNA variant scans (doi:10.1073/pnas.2313332121):
Fewer inactive variants are shown than the library holds.

B1: TPR 5TU (parent)
chain: GGAUCUUCUCGAUCUAACAAAAAAGACAAAUCUGCCACAAAGCUUGAGAGCAUCUUCGGAUGCAGAGGCGGCAGCCUUCGGUGGCGCGAUAGCGCCAACGUUCUCAACUAUGACACGCAAAACGCGUGCUCCGUUGAAUGGAGUUUAUCAUG

Variants of: B1
Test: polymerase ribozyme fitness, log enrichment relative to wild type (log ratio); higher = more active; in vitro selection for triplet polymerase activity
In short: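 To select mutant libraries of each subunit of a heterodimeric triplet polymerase ribozyme, built by PCR and transcribed, each was annealed with a biotinylated primer, partner subunit and triplets, then incubated frozen at −7 °C. Extended constructs were gel-excised, captured on streptavidin beads and amplified by RT-PCR, in one round carried out in triplicate. Illumina sequencing of input and output libraries kept genotypes with ≥10 input reads and ≥1 read per output. Fitness is the base-2 logarithm of genotype enrichment relative to wild-type enrichment, from inverse-variance-weighted replicate averages.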

G143U and G143C are within 0.2 log units of each other in “polymerase ribozyme fitness (log ratio)” value: -1.84 for the first, -1.78 for the second.

Going from G143A to U144A U145A, the “polymerase ribozyme fitness (log ratio)” value falls from -0.315 to -0.541.

Compared with U130C, U130A is lower in “polymerase ribozyme fitness (log ratio)” value: 1.27 for the first, -1.66 for the second.

First: U130G
Second: C125G U127A
The “polymerase ribozyme fitness (log ratio)” value of the first is higher: -2.99 for the first, -3.68 for the second.

First: G136C U146C
Second: G126A A138C
The “polymerase ribozyme fitness (log ratio)” value of the first is higher: -2.93 for the first, -3.73 for the second.

First: U135A
Second: U135C
The “polymerase ribozyme fitness (log ratio)” value of the first is higher: -0.939 for the first, -1.38 for the second.

Compared with U135G, G133U U135G is lower in “polymerase ribozyme fitness (log ratio)” value: -3.19 for the first, -4.04 for the second.

First: U144C
Second: U144G
The “polymerase ribozyme fitness (log ratio)” value of the first is lower: 0.0778 for the first, 0.948 for the second.

Going from U144A to U127C U139C U151G, the “polymerase ribozyme fitness (log ratio)” value falls from -0.043 to at most -4.2.

Compared with U134C U144G, G126A A142C is lower in “polymerase ribozyme fitness (log ratio)” value: 0.895 for the first, -3.28 for the second.

Compared with C129G G143A, A147U U148A is lower in “polymerase ribozyme fitness (log ratio)” value: -2.23 for the first, -2.81 for the second.

Going from U135C U145C to C125U U148G, the “polymerase ribozyme fitness (log ratio)” value falls from -2.51 to at most -4.2.

First: A137U U144G
Second: C132G G133U
The “polymerase ribozyme fitness (log ratio)” value of the first is lower: -4.2 for the first, -2.9 for the second.

G133U U148G and C125G A142C are within 0.2 log units of each other in “polymerase ribozyme fitness (log ratio)” value: -4.1 for the first, -4.01 for the second.

First: U135G A137U U139A U151G
Second: G126A G133C U146C
The “polymerase ribozyme fitness (log ratio)” value of the first is lower: at most -4.2 for the first, -2.5 for the second.

First: C131G G133U
Second: G140U G141C
The “polymerase ribozyme fitness (log ratio)” value of the first is lower: -3.77 for the first, -3.07 for the second.

Going from G126A G140A to G143A U145A, the “polymerase ribozyme fitness (log ratio)” value rises from -3.54 to -2.03.

U134A G140A and G141A A147C are within 0.2 log units of each other in “polymerase ribozyme fitness (log ratio)” value: -3.58 for the first, -3.63 for the second.

Compared with U146C A150U, U134A A142G U144G is lower in “polymerase ribozyme fitness (log ratio)” value: 0.851 for the first, -2.83 for the second.

Compared with G128A G133U, A138C A142G is higher in “polymerase ribozyme fitness (log ratio)” value: -4 for the first, -3.66 for the second.

Going from G141C G143C to C125U U134A, the “polymerase ribozyme fitness (log ratio)” value rises from at most -4.2 to -1.89.

First: C149U A150G
Second: C132U U139G G140A
The “polymerase ribozyme fitness (log ratio)” value of the first is lower: -2.95 for the first, 1.22 for the second.

First: C125A U146G
Second: U127G A147U
The “polymerase ribozyme fitness (log ratio)” value of the first is higher: -0.126 for the first, -3.92 for the second.

First: C131A A138C U139G
Second: A137G G141C
The “polymerase ribozyme fitness (log ratio)” value of the first is lower: -3.67 for the first, -2.74 for the second.

Going from U146C U151G to G128A G136A, the “polymerase ribozyme fitness (log ratio)” value rises from at most -4.2 to -4.18.

First: G128C
Second: G128U
The “polymerase ribozyme fitness (log ratio)” value of the first is higher: -2.21 for the first, -2.53 for the second.

Compared with G128A, G126U C149U is higher in “polymerase ribozyme fitness (log ratio)” value: -2.74 for the first, -1.96 for the second.

First: U127G G140A
Second: G140C U144G
The “polymerase ribozyme fitness (log ratio)” value of the first is lower: -4.15 for the first, -3.51 for the second.

Going from G126U U135C to G141U U146A, the “polymerase ribozyme fitness (log ratio)” value rises from -1.61 to 0.37.

Compared with C132U U145G, G152C is lower in “polymerase ribozyme fitness (log ratio)” value: -0.815 for the first, -2.58 for the second.

Compared with G152U, G152A is higher in “polymerase ribozyme fitness (log ratio)” value: -2.19 for the first, -1.77 for the second.

First: U144C U145C
Second: A147U
The “polymerase ribozyme fitness (log ratio)” value of the first is lower: -0.39 for the first, 1.1 for the second.

First: A147C
Second: A147G
The “polymerase ribozyme fitness (log ratio)” value of the first is higher: 0.176 for the first, -0.913 for the second.

First: C131U U148C
Second: G133U U135A U139G U144G A150U
The “polymerase ribozyme fitness (log ratio)” value of the first is higher: -2.73 for the first, -4.1 for the second.

Going from C125U G143U to A138C U144G, the “polymerase ribozyme fitness (log ratio)” value falls from -3.2 to -3.7.

Compared with U134G, U134C is higher in “polymerase ribozyme fitness (log ratio)” value: -2.37 for the first, 0.0692 for the second.

Compared with U134A, G140U U144C is lower in “polymerase ribozyme fitness (log ratio)” value: -2.25 for the first, -3.28 for the second.

Going from G136U G143C to U135C U151A, the “polymerase ribozyme fitness (log ratio)” value falls from -3.26 to at most -4.2.

First: U127G U134C
Second: G133C U144C C149U
The “polymerase ribozyme fitness (log ratio)” value of the first is higher: -3.03 for the first, -3.98 for the second.

First: C125U U146G
Second: G126A C132U
The “polymerase ribozyme fitness (log ratio)” value of the first is lower: -1.15 for the first, -0.105 for the second.

C125U and C125G are within 0.2 log units of each other in “polymerase ribozyme fitness (log ratio)” value: -0.476 for the first, -0.473 for the second.

Compared with U139G C149G, G140A G141A is higher in “polymerase ribozyme fitness (log ratio)” value: -3.88 for the first, -3.15 for the second.

Going from G143U G152A to C125U U145C, the “polymerase ribozyme fitness (log ratio)” value rises from -3.69 to -0.634.

First: C125A U148A
Second: C125A U148C
The “polymerase ribozyme fitness (log ratio)” value of the first is lower: -3.93 for the first, -3.48 for the second.

Going from A137U U145A A147C to U127A G128U, the “polymerase ribozyme fitness (log ratio)” value rises from at most -4.2 to -3.18.

For G143C U146A, the “polymerase ribozyme fitness (log ratio)” value was -3.65.
